These results are taken from paper PMC4961446, “Dual Role of a Biosynthetic Enzyme, CysK, in Contact Dependent Growth Inhibition in Bacteria” (PLoS ONE, 2016).

Data set [1] concerns the target SpoIISB (Bacillus subtilis) (UniProt O34800). The settings on record: cited from earlier work.
The target of data set [2] is CdiA-CT^536(H3193A) (Escherichia coli strain 536 (UPEC536)). As to the kind of experiment: AUC; sedimentation velocity, 40,000 rpm, 15°C, 20 mM HEPES pH 7.5, 250 mM NaCl; 10, 20 and 30 μM; c(s) model in SEDFIT; complexes mixed and incubated at 4°C for 1 h.
Data set [3] shares this target. Briefly: SPR; Biacore 3000, 30°C; CdiA-CT^(M) immobilized on CM5 chip (723 RU); 10 mM HEPES pH 7.5, 150 mM NaCl, 20 μl/min; analyte CdiI 5-40 nM (1:1 Langmuir model) or CysK 0.4-6.4 μM dimer. In general terms: SPR reads the build-up and loss of mass on a sensor chip optically.
The target of data set [4] is CdiA-CT^(M)/CysK complex (heterotetramer) (Escherichia coli strain 536 (UPEC536) | E. coli K12) (UniProt P0ABK5). As to the kind of experiment: SPR; Biacore 3000, 30°C; CdiA-CT^(M) immobilized on a separate CM5 chip (760 RU), first 0.6 μM CysK (dimer) passed over it to form the CdiA-CT^(M)/CysK complex, then CdiI injected at 2.5-40 nM; local fitting, separate ka/kd model.

Data set [5] has the same target. As to the kind of experiment: ITC; 30°C, 20 mM HEPES pH 7.5, 150 mM NaCl; CdiA-CT^(M) or its preformed complex in the sample cell, CdiI or CysK (dimer concentration) in the syringe; one-site model for CdiA-CT^(M)/CdiI, two binding site model where CysK is involved; apparent enthalpy. (ITC needs no label: the signal is the heat of the interaction.)
Data set [6] deals with CdiA-CT^536(H3193A) (Escherichia coli strain 536 (UPEC536)). The description is as above.
The target in another data set is RelE (Escherichia coli) (UniProt P0C077). As to conditions: cited from earlier work.
Data set [7] concerns the target CdiA-CT^(M)/CdiI complex (heterodimer) (Escherichia coli strain 536 (UPEC536)). As to the kind of experiment: AUC; sedimentation velocity, 40,000 rpm, 15°C, 20 mM HEPES pH 7.5, 250 mM NaCl; 10, 20 and 30 μM; c(s) model in SEDFIT; complexes mixed and incubated at 4°C for 1 h. As to conditions: scale: CysK chain per CdiA-CT^(M)/CdiI heterodimer.
Data set [8] deals with the molecule itself. The data set is described as above.
Data set [9] concerns the molecule itself. As to the kind of experiment: SEC; analytical SEC, Superdex 200 Increase 10/300 GL, 20 mM HEPES pH 7.5, 250 mM NaCl, ~15°C; samples 10, 20 and 30 μM; for complexes purified proteins mixed in varying molar ratios and incubated at 4°C for 1 h; fractions analysed by SDS-PAGE. In general terms: SEC sorts molecules by how far they enter the pores of the column.

Data set [10] addresses CdiA-CT^(M)/CdiI complex (heterodimer) (Escherichia coli strain 536 (UPEC536)). As to the kind of experiment: ITC; 30°C, 20 mM HEPES pH 7.5, 150 mM NaCl; CdiA-CT^(M) or its preformed complex in the sample cell, CdiI or CysK (dimer concentration) in the syringe; one-site model for CdiA-CT^(M)/CdiI, two binding site model where CysK is involved; apparent enthalpy.
The next data set has as its target T1, CysK (Escherichia coli, UniProt P0ABK5).
T1 chain: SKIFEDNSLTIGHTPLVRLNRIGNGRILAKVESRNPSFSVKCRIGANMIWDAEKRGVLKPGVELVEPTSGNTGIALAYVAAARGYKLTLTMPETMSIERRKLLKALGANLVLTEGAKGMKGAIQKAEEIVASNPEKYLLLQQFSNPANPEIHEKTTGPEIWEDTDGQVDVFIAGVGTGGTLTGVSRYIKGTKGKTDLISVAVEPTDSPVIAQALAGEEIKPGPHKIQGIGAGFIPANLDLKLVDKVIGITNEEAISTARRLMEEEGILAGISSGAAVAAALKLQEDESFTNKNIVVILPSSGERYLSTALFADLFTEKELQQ
Briefly: ITC.

“And” between values parts separate entries of the source, which are not always exact repeats. Identical values can stand only once.

Sequence of CdiA-CT^(M)/CdiI complex (heterodimer) (Escherichia coli strain 536 (UPEC536)) (Q0T964 whole entry, one chain of several): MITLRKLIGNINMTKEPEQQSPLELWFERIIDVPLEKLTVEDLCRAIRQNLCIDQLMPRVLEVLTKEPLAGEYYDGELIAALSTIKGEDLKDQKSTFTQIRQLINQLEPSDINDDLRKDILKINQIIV
Sequence of SpoIISB (Bacillus subtilis) (O34800 whole entry): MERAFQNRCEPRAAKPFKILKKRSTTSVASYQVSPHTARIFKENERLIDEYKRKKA
Sequence of RelE (Escherichia coli) (P0C077 whole entry): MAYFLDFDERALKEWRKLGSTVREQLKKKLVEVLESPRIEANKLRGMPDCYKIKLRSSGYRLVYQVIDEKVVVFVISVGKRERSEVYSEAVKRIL

Turning to SpoIISA (from UniProt O34853), the Kd in [1] is 0.46 nM.

The molecule CdiI (natural protein) showed a stoichiometry N (CdiI per CdiA-CT^(M) (1:1)) in data set [2] of 1. In data set [3], the Kd came to 12.8 nM; the koff (as a rule, the rate constant with which the complex falls apart) was determined as 0.065 s⁻¹; the kon (as a rule, a measure of how fast the partners come together) is 5.1e+06 M⁻¹ s⁻¹. For the same molecule, in data set [4], the Kd amounted to 0.3 nM, the koff amounted to 0.0005 s⁻¹ and the kon is 1.5e+06 M⁻¹ s⁻¹. Also, in [5], the KD1, first site came to 1.3 nM; the KD2, second site was 1.1 nM; the dH, first site was -26.7 kcal/mol; the dH, second site is -24.2 kcal/mol. The stoichiometry N (commonly the number of molecules, sites or subunits per partner or assembly) in data set [5] worked out at 1.89. Further, in data set [6], the Kd was 26.4 nM, the dH was -29 kcal/mol and the stoichiometry N turned out to be 0.993.

With RelB (from UniProt P0C079), in the data set with RelE (Escherichia coli), the Kd was 0.33 nM.

B1: CysK (O-acetylserine sulfyhydrylase) (enzyme, E. coli K12, UniProt P0ABK5 1-323, looked up)
chain: MSKIFEDNSLTIGHTPLVRLNRIGNGRILAKVESRNPSFSVKCRIGANMIWDAEKRGVLKPGVELVEPTSGNTGIALAYVAAARGYKLTLTMPETMSIERRKLLKALGANLVLTEGAKGMKGAIQKAEEIVASNPEKYLLLQQFSNPANPEIHEKTTGPEIWEDTDGQVDVFIAGVGTGGTLTGVSRYIKGTKGKTDLISVAVEPTDSPVIAQALAGEEIKPGPHKIQGIGAGFIPANLDLKLVDKVIGITNEEAISTARRLMEEEGILAGISSGAAVAAALKLQEDESFTNKNIVVILPSSGERYLSTALFADLFTEKELQQ
notes: CysK (O-acetylserine sulfhydrylase), amplified from E. coli K12 genomic DNA, in pNIC28-Bsa4; Cloned between NcoI/XhoI of pNIC28-Bsa4; also called CysK dimer; source: E. coli BL21(DE3), purified (Co-NTA, gel filtration)
In the case of B1, the stoichiometry N in data set [7] came out at 1. The same molecule displayed a stoichiometry N (CysK chain per CdiA-CT^(M) chain (2:2)) in data set [2] of 1. In addition, in data set [8], the “stoichiometry N” value came to 2. In [3], this molecule returned a Kd of 32 nM, a koff of 0.00014 s⁻¹ and a kon of 6200 M⁻¹ s⁻¹. In addition, in data set [9], the “stoichiometry N” value was determined as 2. Further, in data set [10], the KD1, first site was found to be 12 nM; the KD2, second site stood at 13.4 nM; the dH, first site is -11 kcal/mol; the dH, second site is -26.7 kcal/mol. The stoichiometry N in [10] is 0.512. Further, in [6], the KD1, first site was determined as 79.3 nM; the KD2, second site was 89.2 nM; the dH, first site was -5.62 kcal/mol; the dH, second site is -20.2 kcal/mol. In data set [6], the stoichiometry N was determined as 0.494.

B2: CdiA-CT CT (protein)
chain: VENNALSLVARGCAVAAPCRTKVAEQLLEIGAKAGMAGLAGAAVKDMADRMTSDELEHLITLQMMGNDEITTKYLSSLHDKYGSGAASNPNIGKDLTDAEKVELGGSGSGTGTPPPSENDPKQQNEKTVDKLNQKQESAIKKIDNTIKNALKDHDIIGTLKDMDGKPVPKENGGYWDHMQEMQNTLRGLRNHADTLKNVNNPEAQAAYGRATDAINKIESALKGYGI
As for B2, the Kd with CysK was 79.3 nM and 89.2 nM.
